According to publication PMC9959916, “A Highly Conserved Region in BRCA2 Suppresses the RAD51-Interaction Activity of BRC Repeats” (Veterinary Sciences, 2023):
Substitutions are numbered along the chain they refer to.

T1: Gal4 DNA-binding domain-fused cBRC1-HCR-BRC2 A1108G (canine (Canis lupus familiaris), UniProt Q8MKI9 993-1248, A1108G)
T1 construct: canine BRCA2, residues 993-1248 with A1108G, a mutation reported in a canine mammary tumor; source: HeLa, transiently transfected, mammalian two-hybrid fusion
T1 sequence (looked up): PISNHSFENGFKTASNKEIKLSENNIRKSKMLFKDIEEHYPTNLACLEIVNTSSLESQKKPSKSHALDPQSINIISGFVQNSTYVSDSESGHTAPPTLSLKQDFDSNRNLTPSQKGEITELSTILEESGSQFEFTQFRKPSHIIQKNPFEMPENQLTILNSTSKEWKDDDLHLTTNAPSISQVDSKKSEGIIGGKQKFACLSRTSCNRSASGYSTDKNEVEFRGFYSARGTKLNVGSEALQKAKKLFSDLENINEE

T2: FLAG-HA-NLS-fused cBRC1-HCR-BRC2 A1108G (canine (Canis lupus familiaris), UniProt Q8MKI9 993-1248, A1108G)
T2 construct: canine BRCA2, residues 993-1248 with A1108G, a mutation reported in a canine mammary tumor; Very low expression; also called A1108G mutant; source: HeLa, stably expressing, in lysate
T2 sequence (looked up): T1 sequence (looked up)

B1: VP16-fused canine RAD51 (natural protein, UniProt Q8MKI8 1-339, looked up)
chain: MAMQMQLEANADTSVEEESFGPQPISRLEQCGINANDVKKLEEAGFHTVEAVAYAPKKELISIKGISEAKADKILTEAAKLVPMGFTTATEFHQRRSEIIQITTGSKELDKLLQGGIETGSITEMFGEFRTGKTQICHTLAVTCQLPIDRGGGEGKAMYIDTEGTFRPERLLAVAERYGLSGSDVLDNVAYARGFNTDHQTQLLYQASAMMVESRYALLIVDSATALYRTDYSGRGELSARQMHLARFLRMLLRLADEFGVAVVITNQVVAQVDGAAMFAADPKKPIGGNIIAHASTTRLYLRKGRGETRICKIYDSPCLPEAEAMFAINADGVGDAKD
notes: canine RAD51, cloned into the pVP16 vector; also called pVP16-RAD51; source: HeLa, transiently transfected, mammalian two-hybrid fusion
B2: endogenous RAD51 (HeLa cells) (natural protein, human (endogenous in HeLa), UniProt Q06609 1-339, looked up)
chain: B1 chain with S62N, T76A, G194A
notes: RAD51 recombinase, endogenous in HeLa cells; source: endogenous, HeLa lysate
B3: FLAG-HA-NLS-fused cBRC1-ΔHCR-BRC2 (canine BRCA2 993–1248 aa deleted with 1101–1133 aa) (domain or fragment, canine (Canis lupus familiaris), UniProt Q8MKI9 993-1248, looked up)
chain: PISNHSFENGFKTASNKEIKLSENNIRKSKMLFKDIEEHYPTNLACLEIVNTSSLESQKKPSKSHALDPQSINIISGFVQNSTYVSDSESGHTAPPTLSLKQDFDSNRHIIQKNPFEMPENQLTILNSTSKEWKDDDLHLTTNAPSISQVDSKKSEGIIGGKQKFACLSRTSCNRSASGYSTDKNEVEFRGFYSARGTKLNVGSEALQKAKKLFSDLENINEE
notes: canine BRCA2, residues 993-1248 with the HCR (1101-1133) deleted; also called HCR-deleted peptide; source: HeLa, stably expressing, in lysate

Experiments:
Conditions in all cases: partners not purified
[1] = molecular target: T1, Gal4 DNA-binding domain-fused …; test: two-hybrid; mammalian two-hybrid in HeLa cells: pM (Gal4 DNA-binding domain)-BRCA2 peptide, pVP16-canine RAD51, pG5-Luc firefly luciferase reporter, normalised to Renilla (pRL-TK); read two days after transfection
[2] = molecular target: T2, FLAG-HA-NLS-fused cBRC1-HCR-BRC2 A1108G; test: co-IP; lysates of HeLa cells stably expressing FLAG-HA-NLS-fused canine BRCA2 peptides, Benzonase-treated; FLAG M2 affinity agarose at 4 °C overnight; washed with 20 mM Tris-HCl pH 8.0, 150 mM KCl, 2 mM MgCl2, 10% glycerol; blots for endogenous RAD51 and PP2A-C subunit
[3] = molecular target: B2; test: co-IP; lysates of HeLa cells stably expressing FLAG-HA-NLS-fused canine BRCA2 peptides; 3 μg anti-RAD51 at 4 °C overnight, Protein G Dynabeads; peptides detected with anti-FLAG

Binder: B1
fold change against the wild-type peptide [1]: 1.5 fold

Binder: B2
fold change against the wild-type peptide [2]: 48 fold

Binder: B3
fold change against cBRC1-HCR-BRC2 [3]: ~1.5 fold
